In PMC8185552:

Target: murine tenascin-C (murine) (UniProt Q80YX1)
Assay: negative staining transmission electron microscopy; murine TNC with CXCL12 labeled with colloidal gold; gold particles counted along the length of the TNC monomer, 500 TNC molecules

stoichiometry N: 6
Substance: murine tenascin-C, Q80YX1 23-2110
